Measurements taken from patent US20080025968A1 (YEDA RESEARCH AND DEVELOPMENT, published 2008).

T1: p55 TNF receptor, endogenous in Ramos cells (human, UniProt P19438 30-455)
T1 construct: whole, on cells; TNF-receptor complex precipitated as described by Zhang et al., 2000
T1 sequence (looked up): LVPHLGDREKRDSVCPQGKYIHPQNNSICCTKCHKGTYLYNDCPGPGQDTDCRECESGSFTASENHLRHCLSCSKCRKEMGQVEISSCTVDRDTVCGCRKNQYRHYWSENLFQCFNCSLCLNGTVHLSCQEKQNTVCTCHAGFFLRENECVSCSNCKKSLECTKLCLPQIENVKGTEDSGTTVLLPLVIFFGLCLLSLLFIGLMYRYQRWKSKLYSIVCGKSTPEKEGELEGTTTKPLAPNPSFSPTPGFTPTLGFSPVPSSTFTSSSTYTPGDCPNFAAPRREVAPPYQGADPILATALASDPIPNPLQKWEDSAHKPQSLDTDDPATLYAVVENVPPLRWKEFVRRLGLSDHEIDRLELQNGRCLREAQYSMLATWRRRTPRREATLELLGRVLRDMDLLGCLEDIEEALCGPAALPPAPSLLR

T2: NF-κB2/p100, endogenous (human, UniProt Q00653 1-900)
T2 construct: mature
T2 sequence (looked up): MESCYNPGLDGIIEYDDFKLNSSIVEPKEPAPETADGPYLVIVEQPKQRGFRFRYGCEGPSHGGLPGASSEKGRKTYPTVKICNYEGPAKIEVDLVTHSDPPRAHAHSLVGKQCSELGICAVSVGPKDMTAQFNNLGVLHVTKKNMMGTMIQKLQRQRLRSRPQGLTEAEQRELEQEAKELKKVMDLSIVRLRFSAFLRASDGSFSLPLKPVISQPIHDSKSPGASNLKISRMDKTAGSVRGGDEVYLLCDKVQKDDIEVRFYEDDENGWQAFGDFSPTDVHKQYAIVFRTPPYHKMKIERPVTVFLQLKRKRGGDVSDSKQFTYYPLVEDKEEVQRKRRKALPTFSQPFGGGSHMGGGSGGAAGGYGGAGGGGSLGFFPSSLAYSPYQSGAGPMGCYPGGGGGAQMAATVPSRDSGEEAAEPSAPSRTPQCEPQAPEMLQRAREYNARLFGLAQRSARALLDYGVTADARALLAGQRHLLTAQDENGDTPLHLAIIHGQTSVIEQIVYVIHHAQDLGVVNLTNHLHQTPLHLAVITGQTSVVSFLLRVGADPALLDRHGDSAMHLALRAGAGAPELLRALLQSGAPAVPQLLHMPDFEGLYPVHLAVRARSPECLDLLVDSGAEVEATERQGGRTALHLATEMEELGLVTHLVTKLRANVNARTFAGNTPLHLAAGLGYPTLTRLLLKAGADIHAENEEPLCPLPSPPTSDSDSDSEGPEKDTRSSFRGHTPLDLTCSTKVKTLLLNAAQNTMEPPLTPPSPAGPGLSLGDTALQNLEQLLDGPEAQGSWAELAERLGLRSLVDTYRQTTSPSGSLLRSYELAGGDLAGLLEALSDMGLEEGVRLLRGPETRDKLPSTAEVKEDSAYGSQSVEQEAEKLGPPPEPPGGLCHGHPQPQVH

B1: IκBα, endogenous (other, human, UniProt P25963 1-317, looked up)
chain: MFQAAERPQEWAMEGPRDGLKKERLLDDRHDSGLDSMKDEEYEQMVKELQEIRLEPQEVPRGSEPWKQQLTEDGDSFLHLAIIHEEKALTMEVIRQVKGDLAFLNFQNNLQQTPLHLAVITNQPEIAEALLGAGCDPELRDFRGNTPLHLACEQGCLASVGVLTQSCTTPHLHSILKATNYNGHTCLHLASIHGYLGIVELLVSLGADVNAQEPCNGRTALHLAVDLQNPDLVSLLLKCGADVNRVTYQGYSPYQLTWGRPSTRIQQQLGQLTLENLQMLPESEDEESYDTESEFTEFTEDELPYDDCVFGGQRLTL
notes: mature
B2: RelB, endogenous (other, human, UniProt Q01201 1-579, looked up)
chain: MLRSGPASGPSVPTGRAMPSRRVARPPAAPELGALGSPDLSSLSLAVSRSTDELEIIDEYIKENGFGLDGGQPGPGEGLPRLVSRGAASLSTVTLGPVAPPATPPPWGCPLGRLVSPAPGPGPQPHLVITEQPKQRGMRFRYECEGRSAGSILGESSTEASKTLPAIELRDCGGLREVEVTACLVWKDWPHRVHPHSLVGKDCTDGICRVRLRPHVSPRHSFNNLGIQCVRKKEIEAAIERKIQLGIDPYNAGSLKNHQEVDMNVVRICFQASYRDQQGQMRRMDPVLSEPVYDKKSTNTSELRICRINKESGPCTGGEELYLLCDKVQKEDISVVFSRASWEGRADFSQADVHRQIAIVFKTPPYEDLEIVEPVTVNVFLQRLTDGVCSEPLPFTYLPRDHDSYGVDKKRKRGMPDVLGELNSSDPHGIESKRRKKKPAILDHFLPNHGSGPFLPPSALLPDPDFFSGTVSLPGLEPPGGPDLLDDGFAYDPTAPTLFTMLDLLPPAPPHASAVVCSGGAGAVVGETPGPEPLTLDSYQAPGPGDGGTASLVGSNMFPNHYREAAFGGGLLSPGPEAT
notes: mature
B3: C-terminal part of SIVA (amino acids 123-175 in SIVA1 or 58-110 in SIVA2), yeast two-hybrid clone (other)
chain: GKAVCGQCERALCGQCVRTCWGCGSVACTLCGLVDCSDMYEKVLCTSCAMFET
notes: Clone from a human bone marrow two-hybrid library; also called SIVA clone; C-terminal SIVA fragment; not shown: Gal4 fusion partner of the library clone / pGADT7 or pGBKT7 vector; not specified
B4: NF-κB2/p52, endogenous (other, human, UniProt Q00653 1-454, looked up)
chain: MESCYNPGLDGIIEYDDFKLNSSIVEPKEPAPETADGPYLVIVEQPKQRGFRFRYGCEGPSHGGLPGASSEKGRKTYPTVKICNYEGPAKIEVDLVTHSDPPRAHAHSLVGKQCSELGICAVSVGPKDMTAQFNNLGVLHVTKKNMMGTMIQKLQRQRLRSRPQGLTEAEQRELEQEAKELKKVMDLSIVRLRFSAFLRASDGSFSLPLKPVISQPIHDSKSPGASNLKISRMDKTAGSVRGGDEVYLLCDKVQKDDIEVRFYEDDENGWQAFGDFSPTDVHKQYAIVFRTPPYHKMKIERPVTVFLQLKRKRGGDVSDSKQFTYYPLVEDKEEVQRKRRKALPTFSQPFGGGSHMGGGSGGAAGGYGGAGGGGSLGFFPSSLAYSPYQSGAGPMGCYPGGGGGAQMAATVPSRDSGEEAAEPSAPSRTPQCEPQAPEMLQRAREYNARLFGLA

How the values were obtained:
[1] = biological target: T1, p55 TNF receptor, endogenous in Ramos …; assay: western blot of the p55 TNF receptor complex from Ramos cells (FIG. 6a)
Method: Transfections, immunoblotting and immunoprecipitations were performed as described in Example 2 and Example 3 of the Examples section. For immunoprecipitation of the CD70/CD27 ligand-receptor complexes from resting PBMC and Ramos cells, cell lysates were prepared as described for the kinase tests aforementioned and incubated for 4 hours at 4° C. with 25 μl of 50% M2-FLAG agarose beads per ml of lysate. The TNF-receptor complex was precipitated as described (Zhang et al., 2000). The signalosome from cell lysates was immunoprecipitated using a 1:1 mixture of two different antibodies against IKK1 (M-280 and H-744, Santa Cruz). Immunoprecipitation was allowed to continue for 2 hours at 4° C., using 10 μg of anti-IKKα antibodies adsorbed to 25 μl of 50% protein-A-Sepharose beads per ml of lysate.

NF-κB2/p100, endogenous = biological target: T2, NF-κB2/p100, endogenous; assay: anti-RelB immunoprecipitation from nuclear extracts of Ramos cells, western blot
Method: (§1) FIG. 3g is an immunoprecipitation analysis with RelB of various NF-κB proteins from nuclear extracts of the Ramos cells, 15 minutes and 4 hours after the application of TNF or CD70 to the cells. Levels of p100, NS and p52 were detected by western blot analysis.
(§2) For immunoprecipitation of the NF-κB proteins, nuclear extracts from 10-20×10⁶ cells were diluted to achieve the following composition: 0.5% NP-40, 10 mM HEPES pH 7.9, 150 mM NaCl, 1 mM EDTA, 1 mM EGTA, 1 mM dithiothreitol (DTT), 1 mM PMSF, and 1× complete protease inhibitor cocktail. Anti-RelB antibody preadsorbed to protein-A-Sepharose beads (Amersham Biosciences) was incubated with precleared nuclear lysates for 2 hours at 4° C. The immunoprecipitates were analyzed by SDS-PAGE using 4-12% Bis-Tris NuPAGE gels (Invitrogen), and the gels were subjected to western blotting as described above.

[2] = biological target: T3, NIK 624-947 (C-terminal part of NIK), yeast two-hybrid construct (human, UniProt Q99558 624-947); assay: yeast two-hybrid, β-galactosidase colour assay in SFY526
T3 construct: Yeast two-hybrid construct used in the β-galactosidase assay in SFY526 yeast; also called C-terminally mutant (NIK 624-947); the C-terminal portion of NIK; not shown: Gal4 fusion partner from pGBKT7 or pGADT7
Method: FIG. 1a illustrates yeast two-hybrid binding assays of NIK to SIVA. The binding of NIK and its C-terminally mutant (NIK 624-947) to the C-terminal part of SIVA (amino acids 123-175 in SIVA1 or 58-110 in SIVA2) or TRAF2, was assessed using transformed SFY526 yeast. The development of a strong color reaction within 1 hour and 3 hours is indicted as ‘++’ and ‘+’, respectively; ‘−’ indicates no color development within 24 h.
A BamHI/XhoI digested NIK insert from the pcNIK vector was subcloned into BamHI/SalI sites of the Gal4 DNA-binding domain vector pGBKT7 (Clontech). A pre-transformed human bone marrow library (HL4053AH, Clontech) was subjected to two-hybrid screening using pGBKT7-NIK as the bait, according to the manufacturer's instructions (Yeast protocol handbook, Clontech—www.clontech.com) Positive clones were identified by quadruple selection and β-galactosidase activity assay. Binding of the SIVA clone to NIK and NIK624-947 was reconfirmed and binding of NIK to TRAF2 was assessed-by a β-galactosidase expression assay using the yeast SFY526 reporter strain (Clontech) and the pGBKT7 and pGADT7 vectors.

RelB, endogenous = biological target: B2; assay: anti-RelB immunoprecipitation from nuclear extracts of Ramos cells, western blot
Method: as §1, §2

T3 sequence (Q99558 624-947): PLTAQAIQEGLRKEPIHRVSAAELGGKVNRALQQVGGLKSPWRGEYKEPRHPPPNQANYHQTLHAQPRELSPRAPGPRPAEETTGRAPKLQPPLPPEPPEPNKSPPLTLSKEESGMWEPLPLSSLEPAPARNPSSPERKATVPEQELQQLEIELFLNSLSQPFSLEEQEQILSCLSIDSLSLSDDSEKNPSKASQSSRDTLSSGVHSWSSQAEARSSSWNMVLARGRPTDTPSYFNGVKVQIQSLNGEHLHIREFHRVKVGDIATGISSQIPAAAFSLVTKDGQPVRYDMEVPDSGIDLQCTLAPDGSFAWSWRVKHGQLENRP

Binder: B1
binding result [1]: binds

Binder: B2
binding result (NF-κB2/p100, endogenous): binds

Binder: B3
binding result [2]: binds

Binder: B4
binding result (RelB, endogenous): binds
